Consider 7 molecules from US20160137739A1 (KINIKSA PHARMACEUTICALS, published 2016).

B1: Ab1 (antibody, human IgG2, lambda, V domains shown)
VH: QVQLVQSGAEVKKPGASVKVSCKASGYTFTSYDINWVRQATGQGLEWMGWMNPNSGNTDYAQKFQGRVTMTRNISISTAYIELSSLRSEDTAVYYCARDMVAANTDYYFYYGMDVWGQGTTVTVSS
VL: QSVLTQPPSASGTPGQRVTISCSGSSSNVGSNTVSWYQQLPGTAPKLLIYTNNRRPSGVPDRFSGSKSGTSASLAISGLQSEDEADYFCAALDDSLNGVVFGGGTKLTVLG
notes: also called Ab1 IgG2 WT; antibody 1
B2: Ab2 (antibody, human IgG2, lambda, V domains shown)
VH: B1 VH with D33E, N57Y, D59G, I74T, I81M, L83M, M100I
VL: QSVLTQPPSASGTPGQRVTISCSGSNSNIGSNTVNWYHQLPGTAPKLLIYNINKRPSGVPDRFSGSKSGSSASLAISGLQSEDEADYYCSTWDDSLDGVVFGGGTKLTVLG
notes: also called Ab2 IgG2 WT; antibody 2
B3: Ab1 N73D IgG2 (antibody, V domains shown)
VH: B1 VH with N73D
VL: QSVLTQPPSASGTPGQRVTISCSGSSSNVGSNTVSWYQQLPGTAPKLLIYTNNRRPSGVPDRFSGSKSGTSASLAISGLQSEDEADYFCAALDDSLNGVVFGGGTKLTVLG
notes: also called Ab1 version 2
B4: Ab2 N73D IgG2 (antibody, V domains shown)
VH: B1 VH with D33E, N57Y, D59G, N73D, I74T, I81M, L83M, M100I
VL: B2 VL
notes: also called Ab2 version 2
B5: Ab2 N73D IgG4P agly/IgG1 (antibody, V domains shown)
VH: B1 VH with D33E, N57Y, D59G, N73D, I74T, I81M, L83M, M100I
VL: B2 VL
B6: Ab1 N73D IgG4P agly/IgG1 (antibody, V domains shown)
VH: B1 VH with N73D
VL: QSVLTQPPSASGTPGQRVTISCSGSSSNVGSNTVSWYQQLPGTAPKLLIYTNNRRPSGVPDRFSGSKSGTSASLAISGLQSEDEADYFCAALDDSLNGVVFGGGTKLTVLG
B7: Ab3 (antibody, human IgG2, kappa, V domains shown)
VH: QVHLVQSGAEVKKPGASVKVSCKASGYTFTSYGISWVRQAPGQGLEWMGWLSTYSGNTNYAQKLQGRVTMTTDTSTSTAYMELRSLRSDDTAVYYCARGNFYYYGMDVWGQGTTVTVSS
VL: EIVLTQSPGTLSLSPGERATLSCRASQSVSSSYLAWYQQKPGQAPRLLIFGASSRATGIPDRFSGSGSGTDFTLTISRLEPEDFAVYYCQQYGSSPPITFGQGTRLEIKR
notes: also called antibody 3

Positions count from the first letter of the chain named. Numbers in names are those of the source.

One assay deals with T1, Soluble OSMR (UniProt Q99650 28-740).
T1 sequence (looked up): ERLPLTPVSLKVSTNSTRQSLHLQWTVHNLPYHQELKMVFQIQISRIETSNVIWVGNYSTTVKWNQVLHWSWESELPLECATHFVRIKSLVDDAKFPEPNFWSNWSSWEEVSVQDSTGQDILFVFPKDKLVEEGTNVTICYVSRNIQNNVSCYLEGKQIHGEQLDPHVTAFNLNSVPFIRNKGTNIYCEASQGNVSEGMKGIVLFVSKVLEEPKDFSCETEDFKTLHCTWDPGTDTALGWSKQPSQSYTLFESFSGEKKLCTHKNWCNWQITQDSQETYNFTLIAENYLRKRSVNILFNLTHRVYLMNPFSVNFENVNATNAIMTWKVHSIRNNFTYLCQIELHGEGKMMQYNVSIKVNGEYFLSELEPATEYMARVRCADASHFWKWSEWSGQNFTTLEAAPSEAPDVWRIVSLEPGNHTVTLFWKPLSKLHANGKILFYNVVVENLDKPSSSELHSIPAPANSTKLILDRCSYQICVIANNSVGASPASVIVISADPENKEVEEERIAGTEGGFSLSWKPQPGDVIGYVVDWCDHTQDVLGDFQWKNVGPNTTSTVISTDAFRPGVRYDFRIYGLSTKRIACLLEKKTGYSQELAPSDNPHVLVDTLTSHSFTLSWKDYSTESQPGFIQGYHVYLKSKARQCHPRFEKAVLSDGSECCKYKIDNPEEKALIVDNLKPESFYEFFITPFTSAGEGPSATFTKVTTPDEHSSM
In words: BIAcore, antibody immobilized on CM4 chip, soluble OSMR analyte. On the technique in general: Surface plasmon resonance follows binding to a sensor surface in real time, without labels.
Method: Binding studies were performed using the BIAcore method. Antibodies containing the variable regions of Ab1 or Ab2 (or the N73D variant of Ab1 or Ab2) with different Fe regions were immobilized on a CM4 chip (GE lifesciences) as per manufacturer's protocols. Soluble OSMR was used as the analyte.
In turn, B1 came in with a Kd of 0.913 nM, a koff of 0.00015 s⁻¹ and a kon of 164000 M⁻¹ s⁻¹.

In turn, B2 came in with a Kd of 1.01 nM, a koff of 0.000189 s⁻¹ and a kon of 188000 M⁻¹ s⁻¹.

B3 yielded a Kd of 0.675 nM, a koff of 0.000168 s⁻¹ and a kon of 249000 M⁻¹ s⁻¹.

The molecule B4 had a Kd of 0.289 nM, a dissociation rate constant (koff) of 4.99e-05 s⁻¹ and an association rate constant (kon) of 173000 M⁻¹ s⁻¹.

In another assay the target is T2, OSMR (UniProt Q99650 28-740).
T2 sequence (looked up): T1 sequence (looked up)
The experiment in a line: Capture ELISA (avidity-less format).
On to B1, for which the EC50 was 10.2 nM.

Molecule B2 registered an EC50 of 3.63 nM.

Molecule B5 returned an EC50 of 1.61 nM.

B3 gave an EC50 of 4.85 nM.

B4: it took 5.49 nM to reach a half-maximal effect (EC50).

B6: the EC50 is 2.86 nM.

For a further assay, the target named is T3, human OSMR expressed on cells (human, UniProt Q99650 28-979).
T3 sequence: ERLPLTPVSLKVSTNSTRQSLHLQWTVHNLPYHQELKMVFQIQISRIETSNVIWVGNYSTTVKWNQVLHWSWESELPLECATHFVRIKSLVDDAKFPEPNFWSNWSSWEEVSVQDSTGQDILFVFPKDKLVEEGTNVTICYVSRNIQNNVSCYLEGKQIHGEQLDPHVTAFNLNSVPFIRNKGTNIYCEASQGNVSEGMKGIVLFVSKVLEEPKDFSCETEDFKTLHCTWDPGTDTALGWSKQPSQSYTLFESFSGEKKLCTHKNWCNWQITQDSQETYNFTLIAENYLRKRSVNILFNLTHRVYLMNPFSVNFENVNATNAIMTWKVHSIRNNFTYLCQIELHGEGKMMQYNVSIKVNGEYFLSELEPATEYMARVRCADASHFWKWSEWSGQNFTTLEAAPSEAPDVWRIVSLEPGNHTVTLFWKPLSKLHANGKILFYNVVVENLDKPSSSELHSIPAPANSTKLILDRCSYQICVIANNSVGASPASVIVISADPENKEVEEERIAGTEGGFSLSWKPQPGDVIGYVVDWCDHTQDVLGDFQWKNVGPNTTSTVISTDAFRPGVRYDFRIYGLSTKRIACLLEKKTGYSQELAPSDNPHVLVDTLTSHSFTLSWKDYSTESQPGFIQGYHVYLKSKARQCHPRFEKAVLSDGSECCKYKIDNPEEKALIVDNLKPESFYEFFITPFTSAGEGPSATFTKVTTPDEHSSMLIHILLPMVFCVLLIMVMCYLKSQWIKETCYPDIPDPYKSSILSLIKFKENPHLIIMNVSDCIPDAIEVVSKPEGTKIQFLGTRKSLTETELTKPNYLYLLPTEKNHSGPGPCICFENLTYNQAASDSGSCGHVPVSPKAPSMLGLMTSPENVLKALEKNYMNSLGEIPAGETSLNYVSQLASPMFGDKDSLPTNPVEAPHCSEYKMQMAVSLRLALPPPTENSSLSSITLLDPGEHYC
The experiment in a line: cell-based or functional assay.
Consider B1, for which the “IC50, IL-31-induced proliferation of BaF3 cells expressing human IL-31RA4 and OSMR” value (shortened to “IC50, IL-31-induced proliferation”) amounted to 0.0352 nM; the “IC50, OSM-induced STAT3 nuclear translocation in primary normal human lung fibroblasts” value (“IC50 … in primary normal human lung fibroblasts” for short) is 0.157 nM.

On to B2, for which the “IC50, IL-31-induced proliferation” value was 0.0276 nM; the “IC50 … in primary normal human lung fibroblasts” value was found to be 0.252 nM.

Consider B7, for which the “IC50, IL-31-induced proliferation” value amounted to 0.78 nM; the “IC50 … in primary normal human lung fibroblasts” value is 1.35 nM.

Another assay concerns the target T2, OSMR. In words: Direct ELISA (solid state avidity format).
On to B1, for which the concentration for a half-maximal effect (EC50) is 0.184 nM.

For the molecule B2, the EC50 amounted to 0.182 nM.

B5: the midpoint of the response, the EC50, lay at 0.0558 nM.

The molecule B3 returned an EC50 of 0.0728 nM.

As to B4, a half-maximal response (EC50) required 0.179 nM.

Molecule B6 had a concentration for a half-maximal effect (EC50) of 0.0626 nM.

For another assay, the target named is T2, OSMR. In words: Sandwich ELISA (solution phase format).
With B1, the EC50 was 0.581 nM.

Regarding B2, a half-maximal effect (EC50) was put at 0.366 nM.

Turning to B5, the EC50 worked out at 0.064 nM.

B3 came in with an EC50 of 0.359 nM.

The molecule B4 displayed an EC50 of 0.343 nM.

With B6, a half-maximal effect (EC50) was put at 0.05 nM.

In another assay the target is T4, hOSMR.FH (human, UniProt Q99650 28-740).
T4 construct: also called huOSMR
T4 sequence: T1 sequence (looked up)
The experiment in a line: SPR, Biacore 3000, antibody captured by anti-human IgG, hOSMR.FH analyte, 25 C.
Method: Biosensor analysis was conducted at 25 C in a HBS-EP+(1×) buffer system (10 mM HEPES pH 7.4, 150 mM NaCl, 3.0 mM EDTA, 0.05% Surfactant P20) using a Biacore 3000 optical biosensor equipped with a CM5 sensor chip. All reagents were kept at 8° C. prior to injection. […] Antibodies 1-3 were diluted (0.25 to 0.5 μg/mL) in running buffer. The antibodies were injected (15 μL) over Flow Cell 2 at a flow rate of 10 μL/min. About 50 RU of antibody was captured. […] Samples were run in duplicate and in random order.
Buffer analyte blanks (0 nM hOSMR) were injected before, in-between, and after sample injections. Antibodies were injected (15 μL) over Flow Cell 2 at a flow rate of 10 μL/min. About 50 RU of antibody was captured. […] The samples were run in triplicate.
Data was analyzed with Scrubber 2.0 software as follows. Data from Flow Cell 2 was subtracted from the data from Flow Cell I (blank reference). The reference subtracted data (2-1) was then subtracted (double referenced) from the nearest 0 nM concentration data. The double referenced long dissociation data was fit to a 1:1 binding model to determine the dissociation rate constant (kd). This dissociation rate constant was used as a fixed parameter to fit the double referenced short dissociation data to a 1:1 binding model in order to determine the association rate constant (ka) and the equilibrium dissociation constant (Kd).
Regarding B1, the Kd worked out at 0.221 nM, the koff was 9.95e-05 s⁻¹ and the on-rate constant (kon) was 447000 M⁻¹ s⁻¹.

Turning to B2, the affinity, expressed as Kd, was 0.0327 nM; the koff was 1.81e-05 s⁻¹; the kon is 550000 M⁻¹ s⁻¹.

The molecule B7 returned a dissociation constant (Kd) of 1.08 nM, a koff of 0.000102 s⁻¹ and a kon of 94700 M⁻¹ s⁻¹.

Another assay has as its target T5, cynomologus OSMR expressed on cells (cynomologus monkey (Macaca fascicularis), UniProt Q99650 28-978 (human entry)).
T5 chain: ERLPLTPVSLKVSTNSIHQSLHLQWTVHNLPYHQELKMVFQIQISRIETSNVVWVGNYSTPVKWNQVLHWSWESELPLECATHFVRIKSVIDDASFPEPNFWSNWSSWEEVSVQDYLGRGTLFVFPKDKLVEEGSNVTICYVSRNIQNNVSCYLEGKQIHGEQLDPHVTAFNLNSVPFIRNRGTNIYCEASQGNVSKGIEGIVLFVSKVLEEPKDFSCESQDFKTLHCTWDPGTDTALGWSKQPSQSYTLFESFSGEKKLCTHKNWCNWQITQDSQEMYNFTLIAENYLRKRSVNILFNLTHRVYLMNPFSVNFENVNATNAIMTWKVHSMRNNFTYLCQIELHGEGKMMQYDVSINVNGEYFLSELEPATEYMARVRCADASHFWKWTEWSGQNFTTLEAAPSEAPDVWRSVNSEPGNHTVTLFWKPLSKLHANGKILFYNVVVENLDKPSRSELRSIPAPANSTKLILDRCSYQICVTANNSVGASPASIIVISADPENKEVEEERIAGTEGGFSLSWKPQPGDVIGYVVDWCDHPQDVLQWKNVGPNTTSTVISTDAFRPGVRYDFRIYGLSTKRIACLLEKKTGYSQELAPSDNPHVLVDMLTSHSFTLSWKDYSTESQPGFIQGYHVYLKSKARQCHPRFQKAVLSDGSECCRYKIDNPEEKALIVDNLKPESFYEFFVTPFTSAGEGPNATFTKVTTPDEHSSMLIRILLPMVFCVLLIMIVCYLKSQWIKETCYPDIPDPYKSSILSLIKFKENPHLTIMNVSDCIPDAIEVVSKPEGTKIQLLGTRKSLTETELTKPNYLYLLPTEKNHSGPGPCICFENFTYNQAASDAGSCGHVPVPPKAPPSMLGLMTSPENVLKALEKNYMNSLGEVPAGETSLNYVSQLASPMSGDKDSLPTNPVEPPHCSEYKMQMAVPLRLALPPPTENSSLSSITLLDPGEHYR
In words: cell-based or functional assay.
As to B1, the “IC50, cyno IL-31-induced proliferation of BaF3 cells overexpressing cyno IL-31RA and OSMR” value (from here on “IC50, cyno IL-31-induced proliferation”) was determined as 0.225 nM; the “IC50, cyno OSM-induced STAT3 nuclear translocation in a primary kidney epithelial cell line” value (“IC50 … in a primary kidney epithelial cell line” for short) is 1.26 nM.

For B2, the “IC50, cyno IL-31-induced proliferation” value came out at 0.0293 nM; the “IC50 … in a primary kidney epithelial cell line” value was 0.518 nM.

For B7, the “IC50, cyno IL-31-induced proliferation” value is 6.87 nM; the “IC50 … in a primary kidney epithelial cell line” value came to 1.24 nM.

What is called Kd is the free concentration of one partner at which half of the binding sites on the other are occupied at equilibrium, for simple one-to-one binding. A word on the koff: it is the rate constant with which the complex falls apart. The term kon denotes the rate constant with which the complex forms. In general, EC50 refers to the concentration at which the effect is half-maximal.
